Experimental data reported in the supplement of paper PMC9112550, “Optimization of the antimicrobial peptide Bac7 by deep mutational scanning” (BMC Biology, 2022).

test system: Escherichia coli TOP10; test: shrunken log2 fold change of peptide-encoding DNA abundance (4.5 h post-induction vs induction); higher = less antimicrobial activity (less host growth inhibition); details: time post-induction: 4.5 h; library: site-saturation at positions 5, 18, 19, 20
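Also: peptides expressed intracellularly from a pBAD plasmid library in pooled LB shake-flask culture, induced with 0.3% L-arabinose, DNA abundance read by NGS, three biological replicates, DESeq2 with apeglm shrinkage.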

Sequence | shrunken log2 fold change
RRIRVRPPRLPRPRPRPNEAPRP | -0.0128
RRIRVRPPRLPRPRPRPNEMPRP | 0.0222
RRIRVRPPRLPRPRPRPNESPRP | -0.374
RRIRVRPPRLPRPRPRPNFFPRP | 0.0488
RRIRVRPPRLPRPRPRPNGQPRP | 0.0697
RRIRVRPPRLPRPRPRPNKCPRP | -0.616
RRIRVRPPRLPRPRPRPNKMPRP | -0.411
RRIRVRPPRLPRPRPRPNKRPRP | -0.158
RRIRVRPPRLPRPRPRPNMPPRP | -0.0801
RRIRVRPPRLPRPRPRPNNPPRP | -0.352
RRIRVRPPRLPRPRPRPNNSPRP | -0.309
RRIRVRPPRLPRPRPRPNPFPRP | -0.104
RRIRVRPPRLPRPRPRPNPLPRP | -0.167
RRIRVRPPRLPRPRPRPNQMPRP | -0.092
RRIRVRPPRLPRPRPRPNRIPRP | -0.0663
RRIRVRPPRLPRPRPRPNRPPRP | -0.262
RRIRVRPPRLPRPRPRPNTQPRP | -0.0658
RRIRVRPPRLPRPRPRPNVVPRP | -0.109
RRIRVRPPRLPRPRPRPNWDPRP | -0.0621
RRIRVRPPRLPRPRPRPNWQPRP | 0.108
RRIRVRPPRLPRPRPRPNYVPRP | -0.254
RRIRVRPPRLPRPRPRPPADPRP | 0.565
RRIRVRPPRLPRPRPRPPDFPRP | 0.0119
RRIRVRPPRLPRPRPRPPDVPRP | -0.286
RRIRVRPPRLPRPRPRPPEHPRP | -0.219

Sequence | shrunken log2 fold change
RRIRVRPPRLPRPRPRPPENPRP | -0.0386
RRIRVRPPRLPRPRPRPPFDPRP | 0.199
RRIRVRPPRLPRPRPRPPFTPRP | 0.955
RRIRVRPPRLPRPRPRPPGPPRP | 0.533
RRIRVRPPRLPRPRPRPPGTPRP | 0.273
RRIRVRPPRLPRPRPRPPHFPRP | 0.696
RRIRVRPPRLPRPRPRPPHLPRP | -0.0283
RRIRVRPPRLPRPRPRPPHTPRP | 0.0516
RRIRVRPPRLPRPRPRPPIMPRP | -0.486
RRIRVRPPRLPRPRPRPPKIPRP | -0.05
RRIRVRPPRLPRPRPRPPKQPRP | 0.0106
RRIRVRPPRLPRPRPRPPLAPRP | 0.425
RRIRVRPPRLPRPRPRPPMVPRP | 0.0314
RRIRVRPPRLPRPRPRPPNGPRP | 0.0958
RRIRVRPPRLPRPRPRPPNKPRP | -0.0216
RRIRVRPPRLPRPRPRPPQCPRP | -0.143
RRIRVRPPRLPRPRPRPPQHPRP | 0.186
RRIRVRPPRLPRPRPRPPQPPRP | 1.38
RRIRVRPPRLPRPRPRPPRLPRP | 0.294
RRIRVRPPRLPRPRPRPPRSPRP | 0.37
RRIRVRPPRLPRPRPRPPRTPRP | 0.331
RRIRVRPPRLPRPRPRPPRYPRP | 0.317
RRIRVRPPRLPRPRPRPPTHPRP | 0.117
RRIRVRPPRLPRPRPRPPVCPRP | 0.191
RRIRVRPPRLPRPRPRPPVDPRP | 0.0819

Sequence | shrunken log2 fold change
RRIRVRPPRLPRPRPRPPVYPRP | -0.329
RRIRVRPPRLPRPRPRPPWLPRP | 0.365
RRIRVRPPRLPRPRPRPPWWPRP | 0.665
RRIRVRPPRLPRPRPRPPYCPRP | -0.0177
RRIRVRPPRLPRPRPRPPYNPRP | -0.1
RRIRVRPPRLPRPRPRPPYQPRP | -0.3
RRIRVRPPRLPRPRPRPQATPRP | 0.271
RRIRVRPPRLPRPRPRPQCSPRP | -0.18
RRIRVRPPRLPRPRPRPQEAPRP | -0.0448
RRIRVRPPRLPRPRPRPQERPRP | -0.119
RRIRVRPPRLPRPRPRPQGHPRP | -0.177
RRIRVRPPRLPRPRPRPQGIPRP | 0.0752
RRIRVRPPRLPRPRPRPQIGPRP | -0.273
RRIRVRPPRLPRPRPRPQIVPRP | -0.136
RRIRVRPPRLPRPRPRPQKRPRP | -0.0953
RRIRVRPPRLPRPRPRPQNPPRP | -0.396
RRIRVRPPRLPRPRPRPQPIPRP | -0.375
RRIRVRPPRLPRPRPRPQPMPRP | 2.31
RRIRVRPPRLPRPRPRPQPQPRP | 0.302
RRIRVRPPRLPRPRPRPQQMPRP | 0.0393
RRIRVRPPRLPRPRPRPQQNPRP | -0.112
RRIRVRPPRLPRPRPRPQQSPRP | -0.0738
RRIRVRPPRLPRPRPRPQSDPRP | -0.0819
RRIRVRPPRLPRPRPRPQSFPRP | -0.111
RRIRVRPPRLPRPRPRPQVIPRP | -0.00246
